T1: FcγRIIb extracellular domain with C-terminal His tag (human, UniProt P31994 43-217)
T1 construct: extracellular domain; Soluble receptor expressed in FreeStyle293 cells; analyte in Biacore; also called FcgRIIb; 2b; not shown: His tag at the C terminus
T1 sequence (looked up): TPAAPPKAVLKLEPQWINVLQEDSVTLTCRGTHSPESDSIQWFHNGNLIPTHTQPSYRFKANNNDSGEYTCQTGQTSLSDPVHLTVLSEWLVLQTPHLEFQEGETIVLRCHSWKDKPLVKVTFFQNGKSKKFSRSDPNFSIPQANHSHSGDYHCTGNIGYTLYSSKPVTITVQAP


How the values were obtained:
[1] = target: T2, FcγRIa extracellular domain with C-terminal His tag (human, UniProt P12314 16-292); assay: SPR (Biacore); He/Con_1a divided by He/Con_2b (FcγRIIb)
T2 construct: extracellular domain; Soluble receptor expressed in FreeStyle293 cells; analyte in Biacore; also called FcgRI; FcgRIa; not shown: His tag at the C terminus
Description: (§1) The heterodimerized antibodies He Abs in which one of the H chains was introduced with an alteration were assayed for their binding activities to each activating FcγR and inhibitory FcγR according to the method described in Example 4. […] The activating FcγRs in FIGS. 26, 27, 28, and 29 are FcγRIa, FcγRIIa (R), FcγRIIa (H), and FcγRIIIa, respectively.
(§2) Analysis of interaction between objective antibody and the FcγR was carried out using Biacore T100 (GE Healthcare). HBS-EP+ (GE Healthcare) was used as the running buffer, and the measurement temperature was set to 25° C. Chips produced by immobilizing the antigen peptide by the amine coupling method to a Series S Sencor Chip CM5 (GE Healthcare), or alternatively, chips produced by allowing preliminarily biotinylated antigen peptides to interact with and immobilize onto a Series S Sensor Chip SA (certified) (GE Healthcare) were used. Antibodies of interest were captured onto an antigen peptide-immobilized chip, and allowed to interact to each FcγR diluted with running buffer. To regenerate and repeatedly use the chip, the antibodies captured on the chip were washed off by reacting 10 mM glycine-HCl, pH 1.5.

[2] = target: T2, FcγRIa extracellular domain with …; assay: SPR (Biacore), antibody captured on antigen peptide chip, FcγR as analyte; binding relative to GpH7-A5/GpH7-B3/GpL16-k0 = 100
Description: as §1, §2

[3] = target: T1, FcγRIIb extracellular domain with …; assay: as above
Description: as §1, §2

T2 sequence (P12314 16-292): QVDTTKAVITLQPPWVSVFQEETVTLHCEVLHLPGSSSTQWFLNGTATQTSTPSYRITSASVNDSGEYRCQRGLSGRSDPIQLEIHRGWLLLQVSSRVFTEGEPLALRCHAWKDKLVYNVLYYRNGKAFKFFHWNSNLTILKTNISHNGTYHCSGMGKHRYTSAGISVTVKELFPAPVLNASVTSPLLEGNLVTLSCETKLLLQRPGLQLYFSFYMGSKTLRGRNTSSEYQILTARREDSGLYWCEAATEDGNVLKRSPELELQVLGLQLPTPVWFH

Row | Binder | He_1a/2b (Ia/IIb) [1] | He/Con_1a (Ia binding) [2] | He/Con_2b (IIb binding) [3]
1 | GpH7-A5/GpH7-B3 variant A330_20W/GpL16-k0 (antibody, human IgG1, kappa, He Ab: heterodimerized anti-glypican-3 IgG1, substitution in one H chain only; also called He Ab A330W) heavy 1: not shown heavy 2: not shown light: DIVMTQSPLSLPVTPGEPASISCQASESLVHSNRNTYLHWYLQKPGQSPQLLIYKVSNRFSGVPDRFSGSGSGTDFTLKISRVEAEDVGVYYCSQNTHVPPTFGQGTKVEIERTVAAPSVFIFPPSDEQLKSGTASVVCLLNNFYPREAKVQWKVDNALQSGNSQESVTEQDSKDSTYSLSSTLTLSKADYEKHKVYACEVTHQGLSSPVTKSFNRGEC | 1.41 | 108 % of control (control = 100) | 76.1 % of control (control = 100)
2 | GpH7-A5/GpH7-B3 variant A330_16H/GpL16-k0 (antibody, human IgG1, kappa, He Ab: heterodimerized anti-glypican-3 IgG1, substitution in one H chain only; also called He Ab A330H) heavy 1: not shown heavy 2: not shown light: DIVMTQSPLSLPVTPGEPASISCQASESLVHSNRNTYLHWYLQKPGQSPQLLIYKVSNRFSGVPDRFSGSGSGTDFTLKISRVEAEDVGVYYCSQNTHVPPTFGQGTKVEIERTVAAPSVFIFPPSDEQLKSGTASVVCLLNNFYPREAKVQWKVDNALQSGNSQESVTEQDSKDSTYSLSSTLTLSKADYEKHKVYACEVTHQGLSSPVTKSFNRGEC | 1.21 | 106 % of control (control = 100) | 87.6 % of control (control = 100)
3 | GpH7-A5/GpH7-B3 variant E333_02A/GpL16-k0 (antibody, human IgG1, kappa, He Ab: heterodimerized anti-glypican-3 IgG1, substitution in one H chain only; also called He Ab E333A) heavy 1: not shown heavy 2: not shown light: DIVMTQSPLSLPVTPGEPASISCQASESLVHSNRNTYLHWYLQKPGQSPQLLIYKVSNRFSGVPDRFSGSGSGTDFTLKISRVEAEDVGVYYCSQNTHVPPTFGQGTKVEIERTVAAPSVFIFPPSDEQLKSGTASVVCLLNNFYPREAKVQWKVDNALQSGNSQESVTEQDSKDSTYSLSSTLTLSKADYEKHKVYACEVTHQGLSSPVTKSFNRGEC | 1.23 | 103 % of control (control = 100) | 83.8 % of control (control = 100)
4 | GpH7-A5/GpH7-B3 variant A327_20W/GpL16-k0 (antibody, human IgG1, kappa, He Ab: heterodimerized anti-glypican-3 IgG1, substitution in one H chain only; also called He Ab A327W) heavy 1: not shown heavy 2: not shown light: DIVMTQSPLSLPVTPGEPASISCQASESLVHSNRNTYLHWYLQKPGQSPQLLIYKVSNRFSGVPDRFSGSGSGTDFTLKISRVEAEDVGVYYCSQNTHVPPTFGQGTKVEIERTVAAPSVFIFPPSDEQLKSGTASVVCLLNNFYPREAKVQWKVDNALQSGNSQESVTEQDSKDSTYSLSSTLTLSKADYEKHKVYACEVTHQGLSSPVTKSFNRGEC | 1.24 | 97.7 % of control (control = 100) | 78.8 % of control (control = 100)

Results, then the binder that gave them:

Row | He_1a/2b (Ia/IIb) [1] | He/Con_1a (Ia binding) [2] | He/Con_2b (IIb binding) [3] | Binder
5 | 1.95 | 109 % of control (control = 100) | 55.6 % of control (control = 100) | GpH7-A5/GpH7-B3 variant A330_09D/GpL16-k0 (antibody, human IgG1, kappa, He Ab: heterodimerized anti-glypican-3 IgG1, substitution in one H chain only; also called He Ab A330D) heavy 1: not shown heavy 2: not shown light: DIVMTQSPLSLPVTPGEPASISCQASESLVHSNRNTYLHWYLQKPGQSPQLLIYKVSNRFSGVPDRFSGSGSGTDFTLKISRVEAEDVGVYYCSQNTHVPPTFGQGTKVEIERTVAAPSVFIFPPSDEQLKSGTASVVCLLNNFYPREAKVQWKVDNALQSGNSQESVTEQDSKDSTYSLSSTLTLSKADYEKHKVYACEVTHQGLSSPVTKSFNRGEC
6 | 1.53 | 107 % of control (control = 100) | 70.1 % of control (control = 100) | GpH7-A5/GpH7-B3 variant A330_10E/GpL16-k0 (antibody, human IgG1, kappa, He Ab: heterodimerized anti-glypican-3 IgG1, substitution in one H chain only; also called He Ab A330E) heavy 1: not shown heavy 2: not shown light: DIVMTQSPLSLPVTPGEPASISCQASESLVHSNRNTYLHWYLQKPGQSPQLLIYKVSNRFSGVPDRFSGSGSGTDFTLKISRVEAEDVGVYYCSQNTHVPPTFGQGTKVEIERTVAAPSVFIFPPSDEQLKSGTASVVCLLNNFYPREAKVQWKVDNALQSGNSQESVTEQDSKDSTYSLSSTLTLSKADYEKHKVYACEVTHQGLSSPVTKSFNRGEC
7 | 1.27 | 102 % of control (control = 100) | 80.6 % of control (control = 100) | GpH7-A5/GpH7-B3 variant E333_11K/GpL16-k0 (antibody, human IgG1, kappa, He Ab: heterodimerized anti-glypican-3 IgG1, substitution in one H chain only; also called He Ab E333K) heavy 1: not shown heavy 2: not shown light: DIVMTQSPLSLPVTPGEPASISCQASESLVHSNRNTYLHWYLQKPGQSPQLLIYKVSNRFSGVPDRFSGSGSGTDFTLKISRVEAEDVGVYYCSQNTHVPPTFGQGTKVEIERTVAAPSVFIFPPSDEQLKSGTASVVCLLNNFYPREAKVQWKVDNALQSGNSQESVTEQDSKDSTYSLSSTLTLSKADYEKHKVYACEVTHQGLSSPVTKSFNRGEC
8 | 1.57 | 105 % of control (control = 100) | 67.1 % of control (control = 100) | GpH7-A5/GpH7-B3 variant A330_07I/GpL16-k0 (antibody, human IgG1, kappa, He Ab: heterodimerized anti-glypican-3 IgG1, substitution in one H chain only; also called He Ab A330I) heavy 1: not shown heavy 2: not shown light: DIVMTQSPLSLPVTPGEPASISCQASESLVHSNRNTYLHWYLQKPGQSPQLLIYKVSNRFSGVPDRFSGSGSGTDFTLKISRVEAEDVGVYYCSQNTHVPPTFGQGTKVEIERTVAAPSVFIFPPSDEQLKSGTASVVCLLNNFYPREAKVQWKVDNALQSGNSQESVTEQDSKDSTYSLSSTLTLSKADYEKHKVYACEVTHQGLSSPVTKSFNRGEC

— patent publication US20180155451A1 (published 2018)
